The results in this text go back to patent WO2014192202A1 (dated 2014).

The target in this experiment is T1, human cardiac muscle-derived troponin I (human, UniProt P19429 2-210).
T1 construct: Immobilised on a CM5 chip at about 500 RU; also called troponin I derived from human myocardium; human myocardial troponin I
The experiment is described as follows: SPR (Biacore T100), troponin I immobilised on CM5 chip, as in Example 1. In general terms: In SPR one partner is held on a chip, and binding of the other changes the refractive index at the surface.

T1 sequence (P19429 2-210 limits assumed): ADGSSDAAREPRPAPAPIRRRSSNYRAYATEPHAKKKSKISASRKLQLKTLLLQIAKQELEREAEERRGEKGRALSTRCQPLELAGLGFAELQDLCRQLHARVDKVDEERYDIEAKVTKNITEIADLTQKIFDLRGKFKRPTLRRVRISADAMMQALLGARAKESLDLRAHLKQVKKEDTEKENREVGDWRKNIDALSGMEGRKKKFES

B1: wild type scFv antibody fragment (SEQ ID NO: 62) (scFv)
scFv: DIVMTQSPSSLAMSVGQKVTMSCKSSQSLLNSSNQKNYLAWYQQKPGQSPKLLVYFASTRESGVPDRFIGSGSGTDFTLTISSVQAEDLADYFCQQHYSTPLTFGAGTKLELKRGGGGSGGGGSGGGGSEVKLEESGGGLVKPGGTLKLSCAASGFTFSSYAMSWVRQTPEKRLDWVATISSGGSYIFYPDSVKGRFTISRDNARNTLYLQMNSLRSEDTAMYYCARHHNPDKSGFAYWGQGTLVTVSAAAALEHHHHHH
notes: also called wild scFv antibody fragment
As for B1, the binding result was “binds”.
